Results taken from patent US20170065702A1 (CANGENE, published 2017).

T1: MARV Angola GPe (Marburg virus, Angola strain, UniProt Q1PD50 19-637)
T1 sequence: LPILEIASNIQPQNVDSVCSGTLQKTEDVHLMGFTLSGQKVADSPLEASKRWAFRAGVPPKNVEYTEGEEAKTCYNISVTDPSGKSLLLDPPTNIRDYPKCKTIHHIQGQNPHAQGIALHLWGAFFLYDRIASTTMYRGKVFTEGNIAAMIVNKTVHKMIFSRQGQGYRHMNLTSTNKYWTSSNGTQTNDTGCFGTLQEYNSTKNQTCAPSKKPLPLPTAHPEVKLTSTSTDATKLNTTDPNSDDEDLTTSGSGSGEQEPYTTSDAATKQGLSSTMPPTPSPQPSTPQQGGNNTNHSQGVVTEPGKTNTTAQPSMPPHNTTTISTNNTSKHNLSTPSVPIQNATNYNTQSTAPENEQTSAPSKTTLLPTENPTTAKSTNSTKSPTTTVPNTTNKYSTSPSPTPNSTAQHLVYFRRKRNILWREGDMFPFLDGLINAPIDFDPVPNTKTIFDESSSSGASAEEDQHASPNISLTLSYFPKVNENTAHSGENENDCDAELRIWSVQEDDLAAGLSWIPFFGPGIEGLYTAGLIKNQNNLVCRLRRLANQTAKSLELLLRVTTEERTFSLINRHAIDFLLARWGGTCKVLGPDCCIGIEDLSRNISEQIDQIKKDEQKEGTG

T2: MARV Musoke GPe (Marburg virus, Musoke strain, UniProt P35253 19-637)
T2 sequence: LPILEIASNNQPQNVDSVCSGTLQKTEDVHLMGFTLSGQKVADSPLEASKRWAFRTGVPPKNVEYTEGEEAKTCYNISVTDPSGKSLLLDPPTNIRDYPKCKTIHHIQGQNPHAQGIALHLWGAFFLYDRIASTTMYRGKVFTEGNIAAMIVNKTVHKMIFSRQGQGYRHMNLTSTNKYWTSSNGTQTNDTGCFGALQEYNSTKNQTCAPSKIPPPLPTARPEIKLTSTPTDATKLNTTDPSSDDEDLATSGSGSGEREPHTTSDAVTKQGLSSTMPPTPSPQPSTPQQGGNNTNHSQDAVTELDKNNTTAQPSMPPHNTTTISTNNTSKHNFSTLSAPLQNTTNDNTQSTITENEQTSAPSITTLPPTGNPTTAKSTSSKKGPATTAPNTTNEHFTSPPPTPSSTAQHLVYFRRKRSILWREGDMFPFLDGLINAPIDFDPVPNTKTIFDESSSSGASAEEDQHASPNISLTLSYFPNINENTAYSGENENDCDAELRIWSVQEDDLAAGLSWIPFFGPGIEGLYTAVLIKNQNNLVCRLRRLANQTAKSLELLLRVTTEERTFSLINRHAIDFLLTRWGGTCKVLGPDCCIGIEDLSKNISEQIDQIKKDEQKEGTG

T3: MARV Ci67 GPe (Marburg virus, Ci67 strain, UniProt P35254 19-637)
T3 sequence: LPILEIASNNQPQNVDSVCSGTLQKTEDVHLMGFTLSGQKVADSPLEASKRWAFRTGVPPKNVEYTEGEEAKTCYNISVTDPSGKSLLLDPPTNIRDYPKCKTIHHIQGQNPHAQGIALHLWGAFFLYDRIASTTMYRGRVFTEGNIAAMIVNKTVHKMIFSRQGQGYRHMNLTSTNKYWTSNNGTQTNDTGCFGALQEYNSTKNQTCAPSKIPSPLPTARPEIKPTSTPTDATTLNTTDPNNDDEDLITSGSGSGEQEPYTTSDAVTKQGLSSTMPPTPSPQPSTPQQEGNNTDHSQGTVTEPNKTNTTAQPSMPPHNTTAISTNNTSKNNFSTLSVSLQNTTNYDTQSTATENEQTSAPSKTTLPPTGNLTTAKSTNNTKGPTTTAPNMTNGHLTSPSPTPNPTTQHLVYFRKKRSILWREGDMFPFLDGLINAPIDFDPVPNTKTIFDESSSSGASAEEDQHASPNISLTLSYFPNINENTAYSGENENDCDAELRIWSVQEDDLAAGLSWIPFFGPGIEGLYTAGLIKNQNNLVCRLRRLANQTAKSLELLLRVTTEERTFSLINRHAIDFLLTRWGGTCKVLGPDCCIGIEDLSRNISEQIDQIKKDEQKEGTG


Assays:
Marburg virus GP (Ravn) [1] = target: T4, Marburg virus GP (Ravn) (Marburg virus, Ravn strain, UniProt Q1PDC7 19-681); test: cell-based or functional assay
MARV Angola GPe = target: T1, MARV Angola GPe; test: ELISA on coated antigen (FIG. 2)
MARV Musoke GPe = target: T2, MARV Musoke GPe; test: ELISA on coated antigen (FIG. 2)
MARV Ci67 GPe = target: T3, MARV Ci67 GPe; test: ELISA on coated antigen (FIG. 2)
Marburg virus GP (Ravn) [2] = target: T4, Marburg virus GP (Ravn); test: cell-based or functional assay; remark: listed apart in the source

Binder | VSVdG/GP Neutralization (Marburg virus GP (Ravn) [1]) | binding result (MARV Angola GPe) | binding result (MARV Musoke GPe) | binding result (MARV Ci67 GPe) | neutralization of mucin containing (full length) MARV GP-pseudotyped VSV (Marburg virus GP (Ravn) [2])
CAN40G1 (antibody, V domains shown) VH: EVQLQQSGPELVKPGASVKISCRTSGYTFTEYTIHWVKQSRGKSLEWIGGINPNHGGTLYNQKFKVKATLTVDKSSSTAYMELRSLTSEDSAVYYCARFTYDYWGQGTTLTVSS VL: DIVLTQSPASLAVSLGQRASISCKASQSVDHDGDSYMNWYQQKPGQPPKLLIYATSNLESGIPARFSGSGSGTDFTLNIHPVEEEDAATYYCQQSYEVPLTFGAGTKLELK | 0% | binds | binds | binds | –
CAN30G5 (antibody, V domains shown) VH: EVQLVESGGGLVQPKGSLKLSCAASGFAFNSYAMHWVCQAPGKGLEWVARIRIKSGNYATSYAGSVTDRFTVSRDDSQNLFYLQMNNLKTEDTAMYYCVREWEGAMDYWGQGTSVTVSS VL: DIVLTQSPLSLPVSLGDQASISCRSSQSLVHSNGNTYLHWYLQKPGQSPNLLIYKVSNRFSGVPDRFSGSGSGTDFTLKISRVEAEDLGVYFCSQSTHVPWTFGGGTKLEIK | 50% | no binding | no binding | no binding | ~50%
CAN30G3 (antibody, V domains shown) VH: QVQLKESGPGLVAPSQSLSITCTVSGFSLTDYGITWIRQPPGKGLEWLGVIWGGGSAYYNLVLKSRLSISKDNSKSQVFLKMNSLQTDDTAMYYCAKHRTLITTAMDYWGQGISVTVSS VL: DVLMTQTPLSLPVSLGDQASISCRSSQNIVHSNGNTYLEWYLQKSGQSPKLLIYKVSNRFSGVPDRFSGSGSGTDFTLKISRVEAEDLGVYYCFQGSHFPWTFGGGTKLEIK | 40% | no binding | no binding | no binding | ~50%
CAN30G4 (antibody, V domains shown) VH: EVKLVESGGGLVKSGGSLKLSCAVSGFTFSTYAMSWVRQIPEKRLEWVATISNGGSYIYYSDSVKGRFTISRDNAKNTLYLQMSSLRSEDTAMYYCARHRESYRYDWFAYWGQGTLVTVSA VL: DVLMTQTPLSLPVSLGDQASISCRSSQNIVHSDGNTYLEWYLQKPGQSPKLLIYKFSNRFSGVPDRFSGSGSGTDFTLKISRVEAEDLGVYYCFQGSHVPPTFGAGTKLELK | 50% | binds | binds | binds | –
CAN54G2 (antibody, V domains shown) VH: QVQLQQSGTELVRPGTSVKISCKASGYDFTNFWLGWIKQRPGHGLEWIGDIYPGGDNTYYNEKFKGKVTLTADKSSNTAYMQFSSLTSEDSAVYFCFMILYTLDYWGQGTSVTVSS VL: not shown | 40% | no binding | no binding | no binding | ~50%
CAN30G1 (antibody, V domains shown) VH: QIQLVQSGPELKKPGETVKISCKASGYTFTNYGMNWVKQAPGKGLKWMGWINTYTGKPTYVDDFKGRFAFSLETSANTAYLQINNLKNEDTATYFCESGGYDEDYWGQGTTLTVSS VL: ENVLTQSPAIMSASPGEKVTMTCSASSSVTYMHWYQQKSSTSPKLWIYDTSKLASGVPGRFSGSGSGNSYSLTISSMEAEDVATYYCFQGSGYPYTFGGGTKLEIK | 5% | binds | binds | binds | –
